The results in this text go back to PMC7705225, “Hfq-Assisted RsmA Regulation Is Central to Pseudomonas aeruginosa Biofilm Polysaccharide PEL Expression”.

The series has as its target RsmA (Pseudomonas aeruginosa PAO1, UniProt O69078 1-61). Briefly: EMSA; without Hfq. As to conditions: protein: recombinant; tags: His6 (C-terminal, RsmA-His6); chain copies: 2; label: none (SYBR Gold stain). A general note: In EMSA bound probe runs differently from free probe, usually more slowly.

Chain of RsmA (O69078 whole entry): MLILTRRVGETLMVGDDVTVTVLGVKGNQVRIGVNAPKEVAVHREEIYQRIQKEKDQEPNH

B1: truncated vfr RNA (structured_RNA)
RNA: CUUUCGGGACUCGGGCAUGGUAGCUAUUACCCACACACCCAAACUCAAACACCUAGACAAGCUGCUCGCACACUGUCACCGCCGCCGCUACACCGCAAAGAGCACCAUCAUCUAUGCCGGCGAUCGCUGCGAU
For the molecule B1, the binding result is recorded as “binds”.
